Experimental data taken from PMC3557595 (Journal of molecular biology, 2012).

Experiments:
[1] = target: Hs H3.1(1-136)(S88Q/G103H)-His6/H4(1-103) (human, UniProt P68431 1-136; P62805 1-103, S88Q | G103H); assay: pull-down
[2] = target: GS-CENP-A^Hs(60-140)-LVPR and GS-H4^Hs(22-103) (human, UniProt P49450 60-140; P62805 22-103); assay: SEC
[3] = target: GS-CENP-A(60-140)-LVPR and H4^Hs(1-103) (human, UniProt P49450 60-140; P62805 1-103); assay: SEC

Measured: binding result

B1: Hs GS-HJURP(2-81) (domain or fragment)
chain: GSLGTLRAMEGEDVEDDQLLQKLRASRRRFQRRMQRLIEKYNQPFEDTPVVQMATLTYETPQGLRIWGGRLIKERNEGEIQD
binds: [1] | [2] | [3]
